# Laboratory results published in article PMC9232105, “S-Adenosylmethionine–responsive cystathionine β-synthase modulates sulfur metabolism and redox balance in Mycobacterium tuberculosis” (Science Advances, 2022).
# Positions count from the first letter of the chain named. Numbers in names are those of the source.
# B1: MtbCbs mutant lacking the Bateman module (MtbCbs 1-317) (domain or fragment)
# chain: MRIAQHISELIGGTPLVRLNSVVPDGAGTVAAKVEYLNPGGSSKDRIAVKMIEAAEASGQLKPGGTIVEPTSGNTGVGLALVAQRRGYKCVFVCPDKVSEDKRNVLIAYGAEVVVCPTAVPPHDPASYYSVSDRLVRDIDGAWKPDQYANPEGPASHYVTTGPEIWADTEGKVTHFVAGIGTGGTITGAGRYLKEVSGGRVRIVGADPEGSVYSGGAGRPYLVEGVGEDFWPAAYDPSVPDEIIAVSDSDSFDMTRRLAREEAMLVGGSCGMAVVAALKVAEEAGPDALIVVLLPDGGRGYMSKIFNDAWMSSYGFL
# B2: MtbCbs L454A (enzyme)
# chain: MRIAQHISELIGGTPLVRLNSVVPDGAGTVAAKVEYLNPGGSSKDRIAVKMIEAAEASGQLKPGGTIVEPTSGNTGVGLALVAQRRGYKCVFVCPDKVSEDKRNVLIAYGAEVVVCPTAVPPHDPASYYSVSDRLVRDIDGAWKPDQYANPEGPASHYVTTGPEIWADTEGKVTHFVAGIGTGGTITGAGRYLKEVSGGRVRIVGADPEGSVYSGGAGRPYLVEGVGEDFWPAAYDPSVPDEIIAVSDSDSFDMTRRLAREEAMLVGGSCGMAVVAALKVAEEAGPDALIVVLLPDGGRGYMSKIFNDAWMSSYGFLRSRLDGSTEQSTVGDVLRRKSGALPALVHTHPSETVRDAIGILREYGVSQMPVVGAEPPVMAGEVAGSVSERELLSAVFEGRAKLADAVSAHMSPPLRMIGAGELVSAAGKALRDWDALMVVEEGKPVGVITRYDLAGFLSEGAGRR
# B3: MtbCbs I357A (enzyme)
# chain: B2 chain with I357A, A454L
# notes: also called I357A mutant
# B4: MtbCbs E388A (enzyme)
# chain: B2 chain with E388A, A454L
# B5: MtbCbs R450A (enzyme)
# chain: B2 chain with R450A, A454L
# B6: MtbCbs S393R (enzyme)
# chain: B2 chain with S393R, A454L
# B7: MtbCbs E390A (enzyme)
# chain: B2 chain with E390A, A454L
# B8: MtbCbs S411A (enzyme)
# chain: B2 chain with S411A, A454L
# B9: MtbCbs D432N (enzyme)
# chain: B2 chain with D432N, A454L
# B10: MtbCbs W433F (enzyme)
# chain: B2 chain with W433F, A454L
# Molecular target: the molecule itself
# Assay: SEC
Protein,stoichiometry N,binding result
B1,2,
B2,,binds
B3,,binds
B4,,binds
B5,,binds
B6,,binds

# Molecular target: the molecule itself
# Assay: not given
row,Protein,stoichiometry N
1,B7,4
2,B8,4
3,B9,4
4,B10,4
